The record followed here is the nanobody polyreactivity screen of Harvey et al. (2022).

The nature of the data set: yeast display, Sf9 membrane polyspecificity reagent, FACS + sequencing; frameworks hold sequencing errors. The method, boiled down:
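Polyreactivity labels are assigned by the sorting gate from which each nanobody was recovered. The gates were low and high (top ~1%), set on anti-HA fluorescence for expression and streptavidin fluorescence for reagent binding. Before sorting, galactose-induced (36–48 hours) yeast display cells were stained for 1 hour at 4 °C with 10% biotinylated, detergent-solubilized Sf9 membrane reagent.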
With “QVQLVESGGGLVQAGGSLRLSCAASGSTFGYNAMGWYRQAPGKERELVAAISRSGGRTYYADSVKGRFTISRDNAKNTVYLQMNSLKPEDTAVYYCATYYTNKVPARYYWGQGTQVTVSS”, the “polyreactivity (PSR sort gate)” value is reported as “high polyreactivity”.

As to “QVQLVESGGGLVQAGGSLRLSCAASGSTFGYNAMGWYRQAPGKERELVAGIRSSGGSTYYADSVKGRFTISRDNAKNTVYLQMNSLKTEDTAVSYCNTRRRRNEKMYYWGQGTQVTVSS”, the “polyreactivity (PSR sort gate)” value is “high polyreactivity”.

Take “QVQLVESGGGLVQAGGSLRLSCAASGSTFGYNAMGWYRQAPGKERELVARITSSGGSTYYADSVKGRFTISRDNAKNTVYLQMNSLKPEDTAVYYCAAGYPYRAVYRYYYWGQGTQVTVSS”: the “polyreactivity (PSR sort gate)” value is given as “high polyreactivity”.

Consider “QVQLVESGGGLVQAGGSLRLSCAASGSTFGYNAMGWYRQAPGKERELVASITWSSGSTYYADSVKGRFTISRDNAKNTVYLQMNSLKPEDTAVYYCAADVEYWSYEFNYWGQGTQVTVSS”, for which the “polyreactivity (PSR sort gate)” value is on record as “low polyreactivity”.

For the sequence “QVQLVESGGGLVQAGGSLRLSCAASGSTFGYNDMGWYRQAHGKERELVAVIDSGGSTNYADSVKGRFTISRDNAKNTVYLQMNSLKPEDTAVYYCAADRDKGNGADVWYGYDYWGQGTQVTVSS”, the “polyreactivity (PSR sort gate)” value is “low polyreactivity”.

For the sequence “QVQLVESGGGLVQAGGSLRLSCAASGSTFGYNGMGWFRQAPGKERELVAAISGGARTYADSVKGRFTISRDNAKNTVYLQMNSLKPEDTAVYYCAAGVFHIFSRGNYDPSEYEYWGQGTQVTVSS”, the “polyreactivity (PSR sort gate)” value is given as “low polyreactivity”.

As for “QVQLVESGGGLVQAGGSLRLSCAASGSTFGYYAMGWDRQAPGKERELVAAISRRVGSTYYADSVKGRFTISRDNAKNTVSLQMNSLNPEDTAVYYWASTSVNPWRGDYDMYYWGQGTQVTVSS”, the “polyreactivity (PSR sort gate)” value is listed as “high polyreactivity”.

Turning to “QVQLVESGGGLVQAGGSLRLSCAASGSTFGYYAMGWSRQAPGKEREFVAAITYGDGNTYYADSVKGRFTISRDNAKNTVYLQMNRLKREDTEVYYCAKYYWGPTGAHGGYGYWGQGTQVTVCS”, the “polyreactivity (PSR sort gate)” value is “low polyreactivity”.

On to “QVQLVESGGGLVQAGGSLRLSCAASGSTFGYYAMGWYRPAPGKERELVAAISSSAGTTYYADSVKGCFTISRDNAKNTVYLLMNRLKPEDTAVFYCAADAVSGHEYWGQGTQVTVSS”, for which the “polyreactivity (PSR sort gate)” value is on record as “low polyreactivity”.

Take “QVQLVESGGGLVQAGGSLRLSCAASGSTFGYYAMGWYRQAPGKERELVAAIRWCGGSTYADSVKGRFTISRDNAKNTVYLQMNSLKPEDTEVYYCAQYRWYGSVLGGYWGQGTQVTVSS”: the “polyreactivity (PSR sort gate)” value is listed as “high polyreactivity”.

As for “QVQLVESGGGLVQAGGSLRLSCAASGSTFGYYAMGWYRQAPGKERELVAAISGSGGSTYYADSVKGRFTISRDNAKNTVYLQMNSLKPEDTAVYYCAATFHRLPKWGSPYYYWGQGTQVTVSS”, the “polyreactivity (PSR sort gate)” value was “high polyreactivity”.

Regarding “QVQLVESGGGLVQAGGSLRLSCAASGSTFGYYAMGWYRQAPGKERELVAAISKRGGSTYYADSVKGRFTISRDNAKNTVYLQMNSLKPEDTAVYYCAAAPYKYPGDYWGQGTQVTVSS”, the “polyreactivity (PSR sort gate)” value is listed as “high polyreactivity”.

Turning to “QVQLVESGGGLVQAGGSLRLSCAASGSTFGYYAMGWYRQAPGKERELVAAISVRGGRTYYADSVKGRFTISRDNAKNTVYLQMNSLKPEDTAVYYCATLLPGLGRYGYDYWGHGTQVTVSS”, the “polyreactivity (PSR sort gate)” value is on record as “high polyreactivity”.

Consider “QVQLVESGGGLVQAGGSLRLSCAASGSTFGYYAMGWYRQAPGKERELVAAITRGGGRTYYADSVKGRFTISRDNAKNTVYLQMNSLKPEDTAVYYCAAVEPTREYYYWGQGTQVTVSS”, for which the “polyreactivity (PSR sort gate)” value is “high polyreactivity”.

Turning to “QVQLVESGGGLVQAGGSLRLSCAASGSTFGYYAMGWYRQAPGKERELVAAITSSGGSTYYSDSVKGRFTISRDNAKNTVYLQMYSMNPEDTAVYDCNTRWCFYIDPFYYEYDYWGQGSQVTVSS”, the “polyreactivity (PSR sort gate)” value is “low polyreactivity”.

With “QVQLVESGGGLVQAGGSLRLSCAASGSTFGYYAMGWYRQAPGKERELVATITKRGGSTYADSVKGRFTISRDNAKNTVYLQMNSLKPEDTAVYYCAKLPFEDYDYWGQGTQVTVSS”, the “polyreactivity (PSR sort gate)” value is given as “low polyreactivity”.

With “QVQLVESGGGLVQAGGSLRLSCAASGSTFGYYAMGWYRQAPGKERELVATITWSGGSTNYADSVKGRFTISRDNAKNTVYLQMNSLKPEDTAVYYCAADLKYWYFGLAFIEVDYWGQGTQVTVSS”, the “polyreactivity (PSR sort gate)” value is “low polyreactivity”.

Turning to “QVQLVESGGGLVQAGGSLRLSCAASGSTFGYYAMGWYRQAPGKESELVAAISAGGGSTYYADSVKGRFTISRDNAKNTVYLQLNSLKPEDTAVYFCAARRPHMPVKTYDYWGQGTLVTVSS”, the “polyreactivity (PSR sort gate)” value is given as “high polyreactivity”.

As to “QVQLVESGGGLVQAGGSLRLSCAASGSTFGYYARGWYRQAPGKERELVAAISWSGTRTYYADSVKGRFTISRDNATNTVYLQMNSLKPEDTAVYYCAVRISRPRVYYYWGQGTQVTVSS”, the “polyreactivity (PSR sort gate)” value is on record as “high polyreactivity”.

“QVQLVESGGGLVQAGGSLRLSCAASGSTFGYYGMGWYRQAPGKERELVAAISTGGRTNYADSVKGRFTISRDNAKNTVYLQMNSLKPEVTAVYYCAADFLCTAYRPSWYRFDYWGQGTQVTVSS”: the “polyreactivity (PSR sort gate)” value is given as “low polyreactivity”.

As to “QVQLVESGGGLVQAGGSLRLSCAASGSTFGYYTKGWYRQAPGKERELVAAITWSGGSTYYADSVKGRFTISRDNAKNTVYLQMNSLKPEDTAVYYCAADDYWTPFGYWGQGTQVTVSS”, the “polyreactivity (PSR sort gate)” value is listed as “low polyreactivity”.

Take “QVQLVESGGGLVQAGGSLRLSCAASGSTFGYYTMGWYRQAPGKERELVAAISRSGGRTYYADSVKGRFTISRDNAKNAVYLQMNSLKPEDTAVYYCNADGTRYAGDDYWGQGTQVTVSS”: the “polyreactivity (PSR sort gate)” value is reported as “high polyreactivity”.

Turning to “QVQLVESGGGLVQAGGSLRLSCAASGSTFGYYTMGWYRQAPGKERELVAAISYSGGRTFYADSVKGRFTISRDNAKNTVFLQMHCLKPEDTAVYYCNNRYIPSFLSHLDYWGQGTHVTVSS”, the “polyreactivity (PSR sort gate)” value was “high polyreactivity”.

Regarding “QVQLVESGGGLVQAGGSLRLSCAASGSTFHFYAMGWYRQAPGKERELVASITSRGGNTHYADSVKGRFTISRDNAKNTVYLQMNRLKPEDTAVYYCAARGGWYGTYDYLGQGTQVTVSS”, the “polyreactivity (PSR sort gate)” value is reported as “low polyreactivity”.

Take “QVQLVESGGGLVQAGGSLRLSCAASGSTFHGYALGWYRQAPGKERELVAAISWSGGRTYYADSVKGRFTISRDNAKNTVYLQMNSLKPEDTAVYYCNKDGYYRWQSTYLANRYDYWGQGTQVTVSS”: the “polyreactivity (PSR sort gate)” value is “high polyreactivity”.

Turning to “QVQLVESGGGLVQAGGSLRLSCAASGSTFHKYAMGWYRQAPGKEREFVAAISWSGGSTYYADSVKGRFTISRDNAKNTVYLQMNSLKPEDTAVYYCAAKGGVSRARWRSIFWHDYWGQGTQVTVSS”, the “polyreactivity (PSR sort gate)” value is given as “high polyreactivity”.

For the sequence “QVQLVESGGGLVQAGGSLRLSCAASGSTFHLYAMGWYRQAPGKERELVAAITRGGGSTYYADSVKGRFTISRDYAKNTVYLQMNSLKPEDTAVYYCNARGPSSYRYEYWGQGTQVTVSS”, the “polyreactivity (PSR sort gate)” value was “high polyreactivity”.

With “QVQLVESGGGLVQAGGSLRLSCAASGSTFHPYAMGRYRQAPGKERELVAAITWRVGSTYYADSVKGRFTISRDNAKNSVYLQMNSLKPEDTAVYYCAVSYLSTLGRSRYDYWGQGTQVTVSS”, the “polyreactivity (PSR sort gate)” value is on record as “low polyreactivity”.

“QVQLVESGGGLVQAGGSLRLSCAASGSTFHRYTMGWYRQAPGKERELVAAISSGVNTDYADSVKGRFTISRDNAKNTVYLQMNSLKPEDTEVYYCNTSFGSPQVVRYEYWGQGTQVTVSS”: the “polyreactivity (PSR sort gate)” value was “low polyreactivity”.

In the case of “QVQLVESGGGLVQAGGSLRLSCAASGSTFHSNAMGWYRQAPGKERELVAAISQGGGRTYYADSVKGRFSISRDNAKNTVYLQMNSLKPEDTAVYYCNRRTRGLIDGGMDYWGQGTQGTVSS”, the “polyreactivity (PSR sort gate)” value was “low polyreactivity”.

“QVQLVESGGGLVQAGGSLRLSCAASGSTFHYYAMGWYRQAPGKERELVAAINSGARTYYADSVKGRFTISRDNAKNTVYLQMNSLKTEDTAVYYCNKAFQWSGGQVSYDYWGQGTQVTVSS”: the “polyreactivity (PSR sort gate)” value is “low polyreactivity”.

As to “QVQLVESGGGLVQAGGSLRLSCAASGSTFHYYARGWYSQAPGKDRELVAAIRTSGGSTYYADSVKGRFTISRDNEKNTVYLLMNCLKPEDTAVYYCNRVLGYPYGVDYWGQGTQVTVSS”, the “polyreactivity (PSR sort gate)” value is “high polyreactivity”.

Turning to “QVQLVESGGGLVQAGGSLRLSCAASGSTFIDYAMGWYRQAPGKERELVAAITNGGNTKYADSVKGRFTISRDNAKNTVYLLMISLNPEDTAVYYCAREPSIFTPSYDYWGQGTQVTVSS”, the “polyreactivity (PSR sort gate)” value is recorded as “low polyreactivity”.

As to “QVQLVESGGGLVQAGGSLRLSCAASGSTFIGFAMGWYRQAPGKERELVAAITSDGRTNYADSVKGRFTISRDNAKNTVYLQMNSLKPEDTAVYYCAAQILGTFYEYDYWGQGTQVTVSS”, the “polyreactivity (PSR sort gate)” value is “low polyreactivity”.

As to “QVQLVESGGGLVQAGGSLRLSCAASGSTFIGNAMGWYRQAPGKERELVAAITRSGGSTFYADSVKGRFTISRDNAKNTVYLQMNSLKPEDTAVYYCAAKGNPYRVPGSSYPKVNYWGQGTQVTVSS”, the “polyreactivity (PSR sort gate)” value is recorded as “high polyreactivity”.

For the sequence “QVQLVESGGGLVQAGGSLRLSCAASGSTFIGSDMGWYRQAPGKERELVAAISYSDGTYYADSVKGRFTISRDNAKNTVYLQMNSLKPEDTAVYYCATSYRDIGSHVGYWGQGTQVTVSS”, the “polyreactivity (PSR sort gate)” value is on record as “low polyreactivity”.

Turning to “QVQLVESGGGLVQAGGSLRLSCAASGSTFIGYAMGWYRHAPGKERELVAGINWSSGSTNYADSVKGRFTISRDNAKNTVYLQMNSLIPEDTAVYYCAADLYWYAHREEYDYWGQGTQVTVSS”, the “polyreactivity (PSR sort gate)” value is “high polyreactivity”.

For “QVQLVESGGGLVQAGGSLRLSCAASGSTFILNAMGSYRQAPGKERELVAAISLSGGSTYYADSVKGRFTISRDNAKNTVYLQMNSQKPEDTAVYYCAAEQWYDNYLEYDYWGQGTQVTLSS”, the “polyreactivity (PSR sort gate)” value was “high polyreactivity”.

In the case of “QVQLVESGGGLVQAGGSLRLSCAASGSTFILYAMGWYRHAPGKERELVAAISRSTGITYYADSVKGRFTISRDNAKNTVYLQMNSLKPEDTAGYYCAADAWGYNDYDASYSTGYEYWGQGTQVTVSS”, the “polyreactivity (PSR sort gate)” value is reported as “high polyreactivity”.

Take “QVQLVESGGGLVQAGGSLRLSCAASGSTFILYAMGWYRQAPGKERELVAAISSDGSTYYADSVKGRFTISRDNAKNTVYLQMNSLKPEDTAVYYCAAYGYDADTGYDYWGLGTQVTVSS”: the “polyreactivity (PSR sort gate)” value is given as “low polyreactivity”.
